Results taken from patent US20230226096A1 (Orna Therapeutics, Inc., priority 2020, published 2023).

B1: Poecivirus BCCH-449 (nucleic acid, listed as Poecivirus sp.)
DNA: ACTACACAATCGCAACACGCGCAAGTTTGTAGTTTGATTGGCGTGCAAATGTCAAATCAAGCATATAACACAATTTGGTGGCTGTTGGTGTTTGTTATAGGAATTTTGGTTGTGTTGAAATTGTGGATGTGTAGGAAATATGCACAATTACGTCAGCGTCAGGAGTTTTATAACCTGGCGCAACACCAAAATGGTCTTCGCGCTTTAACATCACCAGCGAGGTGTAAACAAATTGAAGTTGAATTAGATCGTGTATAGGCCAGGGAACCATCCCTCCCAACGCCACATCTTGTGGGGAAGTTGGGATAATGGTGGGTCTATATGAATTGGTCTGTAGACCCACAGTGAAGAGTGAATAGTATGCTTGCGGTTCCATTTGTTAATGGTCTAGCATGGGTGGGGGCGGCAACCCCGTGAGGGGTTCCCCACTGGCCAAAAGCCCAGGGGTTAGTCATTTCAACCAAGGAAGCTGGTAACCTGGTGACCTGAACTTGAGTGGTGAGACCCCCTTGCTAGAGTGTGTAAACCGATTGTAAGCATTTTGTTTGCTTAGTATCTGTGGTATAAGCAGTCAATTTTGTATAGGCTCAAGGCTGTGGTAGTTAGTAGATGCCCGGAAGGTTATTACTGATCCGGGGACCGTGACTATACATTAGGTAAACCGGTTTAAAAACC
B2: Carp picornavirus 1 (nucleic acid)
DNA: AGCTACAGGAAAGAGAGAGATAATCACAGCACATAAATACAACTACAGAAGAGAGCCTTTCCCTGAGCACTATTTACAGCAAACCACGCTGGGAAAAGTGGTAGCATGACCCACTTACGGGTTACTTAGTATAGGATTTTAATATCTTCGATTCTTTATTTTCTTTTCTTAACTAAGTTCGCCCGGACTTTATCCGTGTTTTATTTTAGTTTAAGCAAAATTGAGTAACTAAGTTTTTAACCTGCCAAATGGTGAGAAGTAACTCTGTGAAAATACCATTTGTGCATGAAATTGTCTTGAAAACTCTTAGGCTTTTGGGGGGTCCCACTGCTGTTTGGAGGACTATTGACAGACTCTATTGTAGTTGAGTAGTGACTAATGATAACGATTTGCGTATTACGCAATGGGCTGTACCCGTTAGATTTAGTATGCCGGGGGGAGGGGTCCCACTGGATTGCACTATGTAACCTGACAGGGCGTCTGCCGACGCACTACAATGAGGATAAGATCGGCTGTTTTTATTT
B3: Equine arteritis virus (nucleic acid)
DNA: GCTCGAAGTGTGTATGGTGCCATATACGGCTCACCACCATATACACTGCAAGAATTACTATTCTTGTGGGCCCCTCTCGGTAAATCCTAGAGGGCTTTCCTCTCGTTATTGCGAGATTCGTCGTTAGATAACGGCAAGTTCCCTTTCTTACTATCCTATTTTCATCTTGTGGCTTGACGGGTCACTGCCATCGTCGTCGATCTCTATCAACTACCCTTGCGACT
B4: Falcon picornavirus (nucleic acid)
DNA: CGCTTGGAATAAGTTGAGAGGAATTATGCATGCTAGTTGTGTTTGTTTACAACTAATTGTTCTAATCCAAGTGAAGCTCTTCGCTTGGGGCGGCACGACACTTGCCGTAATTCTTCTACCGTCCCTCCACACCTTGTGGATGAAGGGCCGGATGTGTGGCCTCTGGCTAACCCCTCTCTCTGGGGTGATGCTACTGGATGTTTTACTCCTAGACCAAATCACATGAACTCCTCTTGATCCACTTCGGTGGGGCTATGAGCCTGCGGATTAATAGCTGGCGACAGCTACCCCAGGGGCCAAAAGCCACGGTGTTAGCAGCACCCTCATAGTCTGATGCCCAAGGGCTGATGTTGGGAGCTAGTAGTGTGTGTCTGGCCTATGTTTAGGACTTCTGGCCAAGCGCAGAGGAGTGGGGCTGAAGGATGCCCAGAAGGTACCCGTAGGTAACCTTAAGAGACTATGGATCTGATCTGGGGCCCCCTCACGTGGCTTTACCACGTGTTGGGGGTTAAAAAACGTCTAGGCCCCACCAGCCCACGGGAGTGGGCTTTCCCTTAAAAAGCCCAACAATATTTATGGTGACAATTCACTGTTTCTTCTTTGCAATTTTTGTATTCTTGGACTCCTTATTTTTTGTTTGCTTGATTTTAGTGGACATTCAGATTCAAATACAAA
B5: Chicken calicivirus (nucleic acid)
DNA: GGTGCATCATCACTGAACACCCTCGGGCAGAGATGCAAGGGTGGAAGTCACTCCTGCCCCCTGGCAACATGCAGGTGCCCGATCCCAAGCTTAGTTCTGACTTCCTCTCCTGGGTGGTGCAACACTCCAAGGTTGATGAACAAACCTGGAGGGACCTCTGGGCAACCTGGTCTCTCGAGGATCTCCGGCGCATCTCCACAGACTACCTCATGCTCCCGGAACCTGAGAAGAACACTGATGCCTATGATGGCTGGCTGATGGTCGGCGAGATGTTGACCTTTGCCGGTCTCATTGGCTGGGAGG
B6: Chicken orivirus 1 (nucleic acid, listed as Orivirus sp.)
DNA: AAACCCTCACGAGTGCTTGTGGTAGGTCCCAGGCCAATATTCTTCGTAAGGCTTGGTTCCAATTTTCCACCACTCGTGTTTGGGTTCTGGCCTATGGTACCCAGAGGGGCGGTTTGGGGGAATTAACTCCCCCTCCCCTGTGGTCCTATACCACCCCACACCTCTGTGGGCTTTCTTTACTATCTTCTTGTTTTCCGACTTTTAAACACTAGGCAGGCGCGCCTAGTCATACACCGCCCGGCTGGTCTTTCCAGCTCTTGTGGGCGGTGCGCGCTGGTCCATCGTGCCCAGCGACATAGCACCTTGTGGACACCTCCGAACGCCCTCCCCTGTATGGGGTGGTGCCCAGGGGTTTCAGTGTGGTGACACACTCCCTGGGGCCCGAAAGGCTAGTGTGCAACAGGTGAGGTACAGCCAGCTGCCCCCGTGGCTGGAGGGACCAAGCTTGTGAAGCACACCTCACCTTCTTGGGGGTGGGCTAGTAAGTGGTGAAAGCATAGTGTCCGTGTCGCTGGCCAACACTTTGGGTCAAGTCCAGCCACTCAGTGAGTAGATGCCCAGGAGGTACCCCTAGTGGATCTGACTTGGGGCCTGTTACTTAATGCAGGTTAAAAACTATGAAAGCTGAGTAGTGTAGCCCGGCTGGTGGCTTCTCTTCCTTATTCATTCTATTTT
B7: Chicken gallivirus 1 (nucleic acid, listed as Gallivirus sp.)
DNA: GGTTAACTTGTTTAACCAAGGCTTCCGTGCAGGGCTTGCACGTTAGGAGTTCATGTTGATTCATGCTCCAATGCCCAAAACTTTGTGTGTTTGTTTATGTCTTTCCCAAAGTTTCCCCCAAGGTTTCGGTACTCAAACCTTAATTCCTAGTCCCATCTTTTGGGCCTTAGTATCTAGGAAATGTACCCGTGCCTTGACGAACGTAAGAAAGCTGTCTTTTATTGAACGGTTCTAATGAACTAAGTATAACTGGCTCGCGCCACCTGGTGTGTGCCGTTGGAATTCCCCCATGGTAACATGGTCCAACGGGCCCGAAAGGCTAGTGGGCAATCGGTCCTCCAAGGAAGGGGTTCCCACCCCGACCTGAACAGGATTTGATGAAGCTCACCTCCCAGGCTCCTAACCCCAAGGAAGTTTACTTATAGTAATTAGAATTTAGTATGTAATTGCTGGCAATCTTGCTAGTAGTCAGGAACGTTATGACCAAATGAGTAGACCCCCAGAAGGTACCCCATTATATGGGATCTGATCTGGGCCTCATACTGTGTGTCTCCCCACATATGAGGTTAAAACCATGAAAGTTTGGTCCAAAATATTCTTTTCCTTTTATCTTTTCTTTAGTGGTGACGCCATTATATCAGCAGTTTGCTG
B8: Equine rhinitis B virus 1 (nucleic acid)
DNA: CGACAGGCACAGGTCGCTCCGAGTTCTAGTAGTGTGGGAACTTGTTACTACTGATGAAACGAGGTAGTGACACTCAGTACCTGCGAACGAGGTCGGGGCCCTCCCTTCTTCCTTCACCCAACTTTCACTTTTCGTTCCACTTTAGCAGGGGTCTTCTTTCTATCCCCCTGGCGGCATTGGAACTAGCCGTCGCGTCTTAACGCGCAGCCCTGAAGGCCCCACACCTTGTGGATCTTGCCGTGGGTATGTTTCTGGCATGTGTTTCTCAAGCCTGCAACCGAAGCCGAACAGCCACATGAACAGTTTGAGCGTGGTAGCGCTGTGTGAGTTGGCGGTGGATCCCCCTCGTGGTAACACGAGCCCCCGTGGCCAAAAGCCCAGTGTTTACAGCACCTCTCACATCCAGGACGACCCCATCCTGGCGCTCACTCTTAGTAGTATGGCTTAGTACGCATTAGGTGGTAAGCCGAGCTCTCCCTCGGCCTTGTTCTGAATGCACACATGTCTAGGGGCTAAGGATGTCCTACAGGTACCCGCACGTAACCTTCAGAGAGTGCGGATCTGAGTAGGAGACCGTGGTGCACTGCTTTACAGATGCAGCCCGGTTTAAAAAGCGTCTATGCCCCTACAGGGTAGCGGTGGGCCGCGCCCTTTCCTTTTAAAACTACTTGTTCT
B9: Equine rhinitis A virus (nucleic acid)
DNA: AAGGGTTACTGCTCGTAATGAGAGCACATGACATTTTGCCAAGATTTCCTGGCAATTGTCACGGGAGAGAGGAGCCCGTTCTCGGGCACTTTTCTCTCAAACAATGTTGGCGCGCCTCGGCGCGCCCCCCCTTTTTCAGCCCCCTGTCATTGACTGGTCGAAGGCGCTCGCAATAAGACTGGTCGTTGCTTGGCTTTTCTATTGTTTCAGGCTTTAGCGCGCCCTTGCGCGGCGGGCCGTCAAGCCCGTGTGCTGTACAGCACCAGGTAACCGGACAGCGGCTTGCTGGATTTTCCCGGTGCCATTGCTCTGGATGGTGTCACCAAGCTGGCAGATGCGGAGTGAACCTTACGAAGCGACACACCTGTGGTAGCGCTGCCCAGAAGGGAGCGGAGCTCCCCCGCCGCGAGGCGGTCCTCTCTGGCCAAAAGCCCAGCGTTAATAGCGCCTTCTGGGATGCAGGAACCCCACCTGCCAGGTGTGAAGTGGACTAAGTGGATCTCCAATTTGGCCTGTTCTGAACTACACCATCTACTGCTGTGAAGAATGTCCTGAAGGCAAGCTGGTTACAGCCCTGATCAGGAGCCCCGCTCGTGACTCTCGATCGACGCGGGGTCAAAAACTGTCTAAGCAGCAGCAGAAACGCGGGAGCGTTTCTTTTTCCTCATTTGTTTC
modifications: Equine rhinitis A virus

The molecules below were run on HEK293 cells. Conditions: luminescence from secreted Gluc in supernatant 24 hours after transfection of HEK293 cells; circular RNA encoding Gluc with the named IRES (UTR truncated to 675 nt).
Assay type: cell-based, human

Molecule | Expression
B1 | 3.43E+05
B2 | 1.13E+05
B3 | 1.89E+05
B4 | 3.08E+06
B5 | 1.28E+05
B6 | 3.16E+05
B7 | 1.51E+07
B8 | 1.01E+05
B9 | 3.73E+05
